Laboratory results reported in patent publication US20140256613A1.

Columns and labels:
[1] = target: full-length human TLR4 expressed as fusion protein with GAL4 (pTLR4) (human); assay: flow cytometry of pSPA-mutant + pTLR4 transfected HEK293 cells stained with isotype control antibody [A)(iii]
[2] = target: full-length human TLR4 expressed as fusion protein with GAL4 (pTLR4) (human); assay: flow cytometry of pSPA + pTLR4 transfected HEK293 cells stained with isotype control antibody [A)(iii]
[3] = target: full-length human TLR4 expressed as fusion protein with GAL4 (pTLR4) (human); assay: cell-based or functional assay

% positive cells in region R [1] [%] | % positive cells in region R [2] [%] | Substance | LPS-induced NF-κB luciferase reporter activity in co-transfected HEK293 cells [3] [RLU]
1.65 | 1.06 | (IC) (antibody) | –
– | – | SPA-mutant lacking SPA4 peptide region, expressed as fusion protein with VP16 (pSPA-mutant) (from UniProt Q8IWL2 21-248) | 44
